# Source: FireProtDB (doi:10.1093/protein/12.8.663)
# Where “and” joins values, the source holds several entries; their conditions need not be identical. Identical values can stand only once.
# B1: Lysozyme C, P61626 (parent)
# chain: MKALIVLGLVLLSVTVQGKVFERCELARTLKRLGMDGYRGISLANWMCLAKWESGYNTRATNYNAGDRSTDYGIFQINSRYWCNDGKTPGAVNACHLSCSALLQDNIADAVACAKRVVRDPQGIRAWVAWRNRCQNRDVRQYVQGCGV
# Variants of: B1
# Conditions: Homo sapiens; pH 2.48; Thermal; DSC; glycine 0.05 M; reversible: yes; structure 1LZ1; whole UniProt chain shown
Variant,Tm,unfolding enthalpy (calorimetric),unfolding enthalpy (van 't Hoff)
MKALIVLGLVLLSVTVQGKVFERCELARTLKRLGMDGYRGISLANWMCLAKWESQYNTRATNYNAGDRSTDYGIFQINSRYWCNDGKTPGAVNACHLSCSALLQDNIADAVACAKRVVRDPQGIRAWVAWRNRCQNRDVRQYVQGCGV,60.7 °C,102 kcal/mol,108 kcal/mol

# Same assay, conditions: Homo sapiens; pH 2.7; 64.9 °C; Thermal; DSC; glycine 0.05 M; reversible: yes; structure 1LZ1; whole UniProt chain shown
row,Variant,ddG of mutation (higher = less stable)
1,MKALIVLGLVLLSVTVQGKVFERCELARTLKRLGMDGYRGISLANWMCLAKWESQYNTRATNYNAGDRSTDYGIFQINSRYWCNDGKTPGAVNACHLSCSALLQDNIADAVACAKRVVRDPQGIRAWVAWRNRCQNRDVRQYVQGCGV,0.26 kcal/mol
2,MKALIVLGLVLLSVTVQGKVFERCELARTLKRLGMDGYRGISLANWMCLAKWESGYNTRATNYNAGDRSTDYGIFQINSRYWCNDGKTPGAVNACGLSCSALLQDNIADAVACAKRVVRDPQGIRAWVAWRNRCQNRDVRQYVQGCGV,0.12 kcal/mol
3,MKALIVLGLVLLSVTVQGKVFERCELARTLKRLGMDGYRGISLANWMCLAKWLSGYNTRATNYNAGDRSTDYGIFQINSRYWCNDGKTPGAVNACHLSCSALLQDNIADAVACAKRVVRDPQGIRAWVAWRNRCQNRDVRQYVQGCGV,0.53 kcal/mol
4,MKALIVLGLVLLSVTVQGKVFERCELARTLKRLGMDGYRGISLANWMCLAKWESGYNTRATNYNAGDRSTDYGIFQINSRYWCNDGKTPGAVNACHLSCSALLQDNIADAVACMKRVVRDPQGIRAWVAWRNRCQNRDVRQYVQGCGV,-0.02 kcal/mol
5,MKALIVLGLVLLSVTVQGKVFERCELARTLKRLGMDGYRGISLANWMCLAKWESGYNTRATNYNAGDGSTDYGIFQINSRYWCNDGKTPGAVNACHLSCSALLQDNIADAVACAKRVVRDPQGIRAWVAWRNRCQNRDVRQYVQGCGV,-0.26 kcal/mol

# Same assay, conditions: Homo sapiens; pH 2.7; Thermal; DSC; glycine 0.05 M; reversible: yes; structure 1LZ1; whole UniProt chain shown
Variant,Tm,"change of melting temperature, mutant - wild type (higher = more stable)",heat capacity change of unfolding,unfolding enthalpy (calorimetric)
MKALIVLGLVLLSVTVQGKVFERCELARTLKRLGMDGYRGISLANWMCLAKWESQYNTRATNYNAGDRSTDYGIFQINSRYWCNDGKTPGAVNACHLSCSALLQDNIADAVACAKRVVRDPQGIRAWVAWRNRCQNRDVRQYVQGCGV,64.1 °C and 64.9 °C,-0.8 °C,1.15 kcal/mol/K,108 kcal/mol
MKALIVLGLVLLSVTVQGKVFERCELARTLKRLGMDGYRGISLANWMCLAKWESGYNTRATNYNAGDRSTDYGIFQINSRYWCNDGKTPGAVNACGLSCSALLQDNIADAVACAKRVVRDPQGIRAWVAWRNRCQNRDVRQYVQGCGV,64.4 °C and 64.9 °C,-0.5 °C,1.58 kcal/mol/K,109 kcal/mol
MKALIVLGLVLLSVTVQGKVFERCELARTLKRLGMDGYRGISLANWMCLAKWLSGYNTRATNYNAGDRSTDYGIFQINSRYWCNDGKTPGAVNACHLSCSALLQDNIADAVACAKRVVRDPQGIRAWVAWRNRCQNRDVRQYVQGCGV,63.1 °C and 64.9 °C,-1.8 °C,1.05 kcal/mol/K,99 kcal/mol
MKALIVLGLVLLSVTVQGKVFERCELARTLKRLGMDGYRGISLANWMCLAKWESGYNTRATNYNAGDRSTDYGIFQINSRYWCNDGKTPGAVNACHLSCSALLQDNIADAVACMKRVVRDPQGIRAWVAWRNRCQNRDVRQYVQGCGV,65 °C and 64.9 °C,0.1 °C,1.31 kcal/mol/K,98.7 kcal/mol
MKALIVLGLVLLSVTVQGKVFERCELARTLKRLGMDGYRGISLANWMCLAKWESGYNTRATNYNAGDGSTDYGIFQINSRYWCNDGKTPGAVNACHLSCSALLQDNIADAVACAKRVVRDPQGIRAWVAWRNRCQNRDVRQYVQGCGV,65.8 °C and 64.9 °C,0.9 °C,1.46 kcal/mol/K,100 kcal/mol

# Same assay, conditions: Homo sapiens; pH 2.73; Thermal; DSC; glycine 0.05 M; reversible: yes; structure 1LZ1; whole UniProt chain shown
Variant,Tm,unfolding enthalpy (calorimetric),unfolding enthalpy (van 't Hoff)
MKALIVLGLVLLSVTVQGKVFERCELARTLKRLGMDGYRGISLANWMCLAKWESQYNTRATNYNAGDRSTDYGIFQINSRYWCNDGKTPGAVNACHLSCSALLQDNIADAVACAKRVVRDPQGIRAWVAWRNRCQNRDVRQYVQGCGV,64.5 °C,108 kcal/mol,111 kcal/mol

# Same assay, conditions: Homo sapiens; pH 3.09; Thermal; DSC; glycine 0.05 M; reversible: yes; structure 1LZ1; whole UniProt chain shown
Variant,Tm,unfolding enthalpy (calorimetric),unfolding enthalpy (van 't Hoff)
MKALIVLGLVLLSVTVQGKVFERCELARTLKRLGMDGYRGISLANWMCLAKWESQYNTRATNYNAGDRSTDYGIFQINSRYWCNDGKTPGAVNACHLSCSALLQDNIADAVACAKRVVRDPQGIRAWVAWRNRCQNRDVRQYVQGCGV,70.1 °C,113 kcal/mol,118 kcal/mol

# Same assay, conditions: Homo sapiens; pH 2.53; Thermal; DSC; glycine 0.05 M; reversible: yes; structure 1LZ1; whole UniProt chain shown
Variant,Tm,unfolding enthalpy (calorimetric),unfolding enthalpy (van 't Hoff)
MKALIVLGLVLLSVTVQGKVFERCELARTLKRLGMDGYRGISLANWMCLAKWESGYNTRATNYNAGDRSTDYGIFQINSRYWCNDGKTPGAVNACGLSCSALLQDNIADAVACAKRVVRDPQGIRAWVAWRNRCQNRDVRQYVQGCGV,61.5 °C,103 kcal/mol,108 kcal/mol

# Same assay, conditions: Homo sapiens; pH 2.75; Thermal; DSC; glycine 0.05 M; reversible: yes; structure 1LZ1; whole UniProt chain shown
Variant,Tm,unfolding enthalpy (calorimetric),unfolding enthalpy (van 't Hoff)
MKALIVLGLVLLSVTVQGKVFERCELARTLKRLGMDGYRGISLANWMCLAKWESGYNTRATNYNAGDRSTDYGIFQINSRYWCNDGKTPGAVNACGLSCSALLQDNIADAVACAKRVVRDPQGIRAWVAWRNRCQNRDVRQYVQGCGV,65.2 °C,110 kcal/mol,112 kcal/mol

# Same assay, conditions: Homo sapiens; pH 3.1; Thermal; DSC; glycine 0.05 M; reversible: yes; structure 1LZ1; whole UniProt chain shown
Variant,Tm,unfolding enthalpy (calorimetric),unfolding enthalpy (van 't Hoff)
MKALIVLGLVLLSVTVQGKVFERCELARTLKRLGMDGYRGISLANWMCLAKWESGYNTRATNYNAGDRSTDYGIFQINSRYWCNDGKTPGAVNACGLSCSALLQDNIADAVACAKRVVRDPQGIRAWVAWRNRCQNRDVRQYVQGCGV,71 °C,118 kcal/mol,120 kcal/mol

# Same assay, conditions: Homo sapiens; pH 2.56; Thermal; DSC; glycine 0.05 M; reversible: yes; structure 1LZ1; whole UniProt chain shown
Variant,Tm,unfolding enthalpy (calorimetric),unfolding enthalpy (van 't Hoff)
MKALIVLGLVLLSVTVQGKVFERCELARTLKRLGMDGYRGISLANWMCLAKWLSGYNTRATNYNAGDRSTDYGIFQINSRYWCNDGKTPGAVNACHLSCSALLQDNIADAVACAKRVVRDPQGIRAWVAWRNRCQNRDVRQYVQGCGV,61.2 °C,94.9 kcal/mol,105 kcal/mol
MKALIVLGLVLLSVTVQGKVFERCELARTLKRLGMDGYRGISLANWMCLAKWESGYNTRATNYNAGDRSTDYGIFQINSRYWCNDGKTPGAVNACHLSCSALLQDNIADAVACMKRVVRDPQGIRAWVAWRNRCQNRDVRQYVQGCGV,62.5 °C,95.1 kcal/mol,98 kcal/mol

# Same assay, conditions: Homo sapiens; pH 3.25; Thermal; DSC; glycine 0.05 M; reversible: yes; structure 1LZ1; whole UniProt chain shown
Variant,Tm,unfolding enthalpy (calorimetric),unfolding enthalpy (van 't Hoff)
MKALIVLGLVLLSVTVQGKVFERCELARTLKRLGMDGYRGISLANWMCLAKWLSGYNTRATNYNAGDRSTDYGIFQINSRYWCNDGKTPGAVNACHLSCSALLQDNIADAVACAKRVVRDPQGIRAWVAWRNRCQNRDVRQYVQGCGV,70.8 °C,105 kcal/mol,110 kcal/mol

# Same assay, conditions: Homo sapiens; pH 3.19; Thermal; DSC; glycine 0.05 M; reversible: yes; structure 1LZ1; whole UniProt chain shown
Variant,Tm,unfolding enthalpy (calorimetric),unfolding enthalpy (van 't Hoff)
MKALIVLGLVLLSVTVQGKVFERCELARTLKRLGMDGYRGISLANWMCLAKWESGYNTRATNYNAGDRSTDYGIFQINSRYWCNDGKTPGAVNACHLSCSALLQDNIADAVACMKRVVRDPQGIRAWVAWRNRCQNRDVRQYVQGCGV,72.9 °C,109 kcal/mol,112 kcal/mol

# Same assay, conditions: Homo sapiens; pH 2.58; Thermal; DSC; glycine 0.05 M; reversible: yes; structure 1LZ1; whole UniProt chain shown
Variant,Tm,unfolding enthalpy (calorimetric),unfolding enthalpy (van 't Hoff)
MKALIVLGLVLLSVTVQGKVFERCELARTLKRLGMDGYRGISLANWMCLAKWESGYNTRATNYNAGDGSTDYGIFQINSRYWCNDGKTPGAVNACHLSCSALLQDNIADAVACAKRVVRDPQGIRAWVAWRNRCQNRDVRQYVQGCGV,63.7 °C,99.9 kcal/mol,111 kcal/mol

# Same assay, conditions: Homo sapiens; pH 2.78; Thermal; DSC; glycine 0.05 M; reversible: yes; structure 1LZ1; whole UniProt chain shown
Variant,Tm,unfolding enthalpy (calorimetric),unfolding enthalpy (van 't Hoff)
MKALIVLGLVLLSVTVQGKVFERCELARTLKRLGMDGYRGISLANWMCLAKWESGYNTRATNYNAGDGSTDYGIFQINSRYWCNDGKTPGAVNACHLSCSALLQDNIADAVACAKRVVRDPQGIRAWVAWRNRCQNRDVRQYVQGCGV,67.3 °C,102 kcal/mol,114 kcal/mol

# Same assay, conditions: Homo sapiens; pH 3.11; Thermal; DSC; glycine 0.05 M; reversible: yes; structure 1LZ1; whole UniProt chain shown
Variant,Tm,unfolding enthalpy (calorimetric),unfolding enthalpy (van 't Hoff)
MKALIVLGLVLLSVTVQGKVFERCELARTLKRLGMDGYRGISLANWMCLAKWESGYNTRATNYNAGDGSTDYGIFQINSRYWCNDGKTPGAVNACHLSCSALLQDNIADAVACAKRVVRDPQGIRAWVAWRNRCQNRDVRQYVQGCGV,73 °C,113 kcal/mol,123 kcal/mol
